Measured values reported in publication PMC517823.
pKd, pKi: −log10 of the molar value.

Columns and labels:
FtsY (Escherichia coli) = FtsY (Escherichia coli) (UniProt P10121); settings: cited from earlier work
Ffh [1] = biological target: Ffh (UniProt P0AGD7); assay: other; GTP; inhibition assay; settings: domain or fragment
Ffh [2] = biological target: Ffh (UniProt P0AGD7); assay: inhibition assay

Sequence of Ffh (UniProt P0AGD7) (P0AGD7 whole entry, the tested form may be a part): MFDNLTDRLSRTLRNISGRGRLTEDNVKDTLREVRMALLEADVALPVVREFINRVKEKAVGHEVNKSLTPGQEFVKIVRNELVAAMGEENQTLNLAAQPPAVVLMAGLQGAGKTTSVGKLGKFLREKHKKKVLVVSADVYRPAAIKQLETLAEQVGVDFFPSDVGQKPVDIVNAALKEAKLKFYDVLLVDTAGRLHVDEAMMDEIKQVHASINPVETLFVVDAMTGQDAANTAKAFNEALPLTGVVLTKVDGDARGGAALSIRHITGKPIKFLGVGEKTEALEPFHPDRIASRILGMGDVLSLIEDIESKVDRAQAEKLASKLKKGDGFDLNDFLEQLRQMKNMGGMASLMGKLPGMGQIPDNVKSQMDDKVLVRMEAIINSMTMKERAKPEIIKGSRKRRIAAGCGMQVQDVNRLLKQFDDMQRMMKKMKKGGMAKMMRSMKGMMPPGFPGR
Sequence of wild-type FtsY(47-497) (from UniProt P10121) Q339(144)A (P10121 47-497, change not shown): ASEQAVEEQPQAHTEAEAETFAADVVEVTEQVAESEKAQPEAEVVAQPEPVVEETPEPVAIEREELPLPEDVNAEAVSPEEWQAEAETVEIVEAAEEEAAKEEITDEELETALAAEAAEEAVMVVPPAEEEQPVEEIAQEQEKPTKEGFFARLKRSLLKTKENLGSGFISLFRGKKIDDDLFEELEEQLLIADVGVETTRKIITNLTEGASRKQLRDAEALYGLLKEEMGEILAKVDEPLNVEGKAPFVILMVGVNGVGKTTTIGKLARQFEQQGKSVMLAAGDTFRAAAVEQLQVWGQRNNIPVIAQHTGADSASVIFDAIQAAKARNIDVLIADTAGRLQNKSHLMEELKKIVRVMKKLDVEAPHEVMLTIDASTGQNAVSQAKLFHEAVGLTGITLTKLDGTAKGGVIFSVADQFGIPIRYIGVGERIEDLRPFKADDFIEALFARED
Sequence of wild-type FtsY(47-497) (from UniProt P10121) K447(246)A (P10121 47-497, change not shown): as above
Sequence of wild-type FtsY(47-497) (from UniProt P10121) R386(191)A (P10121 47-497, change not shown): as above
Sequence of wild-type FtsY(47-497) (from UniProt P10121) T307(112)W (P10121 47-497, change not shown): as above
Sequence of wild-type FtsY(47-497) (from UniProt P10121) D479(278)A (P10121 47-497, change not shown): as above
Sequence of wild-type FtsY(47-497) (from UniProt P10121) K453(252)E (P10121 47-497, change not shown): as above
Sequence of wild-type FtsY(47-497) (from UniProt P10121) G454(253)W (P10121 47-497, change not shown): as above
Sequence of FtsY Arg386(191) mutant (P10121 47-497, change not shown): as above
Sequence of wild-type FtsY(47-497) (from UniProt P10121) D382(187)A (P10121 47-497, change not shown): as above
Sequence of wild-type FtsY(47-497) (from UniProt P10121) D330(135)A (P10121 47-497, change not shown): as above
Sequence of wild-type FtsY(47-497) (from UniProt P10121) K306(111)A (P10121 47-497, change not shown): as above
Sequence of wild-type FtsY(47-497) (from UniProt P10121) K312(117)A (P10121 47-497, change not shown): as above
Sequence of Ffh (from UniProt P0AGD7) (P0AGD7 whole entry): as the sequence (P0AGD7 whole entry, the tested form may be a part) above
Sequence of FtsY (Escherichia coli) (P10121 2-497): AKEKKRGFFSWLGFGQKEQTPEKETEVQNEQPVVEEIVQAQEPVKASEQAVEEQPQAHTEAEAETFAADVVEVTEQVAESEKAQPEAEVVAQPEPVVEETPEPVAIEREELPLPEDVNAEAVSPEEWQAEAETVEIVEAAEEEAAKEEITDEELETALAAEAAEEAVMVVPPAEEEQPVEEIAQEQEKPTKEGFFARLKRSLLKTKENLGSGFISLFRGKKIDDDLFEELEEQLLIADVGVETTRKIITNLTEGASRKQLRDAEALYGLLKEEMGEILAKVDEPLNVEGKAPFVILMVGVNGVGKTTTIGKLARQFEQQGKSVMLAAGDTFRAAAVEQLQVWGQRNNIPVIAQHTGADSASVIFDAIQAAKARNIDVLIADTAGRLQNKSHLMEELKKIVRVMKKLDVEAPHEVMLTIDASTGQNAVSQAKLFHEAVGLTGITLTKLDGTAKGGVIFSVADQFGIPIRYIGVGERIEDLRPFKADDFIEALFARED

| Substance | pKi (Ffh [2]) | also measured |
| --- | --- | --- |
| Ffh (from UniProt P0AGD7) | – | pKd (FtsY (Escherichia coli)): 7.80 |
| FtsY Arg386(191) mutant (from UniProt P10121 47-497) | – | pKi (Ffh [1]): 6.92 |
| wild-type FtsY(47-497) (from UniProt P10121) A336(141)W | 6.80 | – |
| wild-type FtsY(47-497) (from UniProt P10121) D330(135)A | 5.62 | – |
| wild-type FtsY(47-497) (from UniProt P10121) D382(187)A | 4.57 | – |
| wild-type FtsY(47-497) (from UniProt P10121) D479(278)A | 5.55 | – |
| wild-type FtsY(47-497) (from UniProt P10121) G454(253)W | 5.38 | – |
| wild-type FtsY(47-497) (from UniProt P10121) K306(111)A | 5.46 | – |
| wild-type FtsY(47-497) (from UniProt P10121) K312(117)A | 5.62 | – |
| wild-type FtsY(47-497) (from UniProt P10121) K447(246)A | 4.96 | – |
| wild-type FtsY(47-497) (from UniProt P10121) K453(252)E | 5.51 | – |
| wild-type FtsY(47-497) (from UniProt P10121) N302(107)A | 6.96 | – |
| wild-type FtsY(47-497) (from UniProt P10121) N302(107)W | 6.85 | – |
| wild-type FtsY(47-497) (from UniProt P10121) Q339(144)A | 5.41 | – |
| wild-type FtsY(47-497) (from UniProt P10121) R333(138)A | 6.62 | – |
| wild-type FtsY(47-497) (from UniProt P10121) R386(191)A | 6.92 | – |
| wild-type FtsY(47-497) (from UniProt P10121) T307(112)A | 5.15 | – |
| wild-type FtsY(47-497) (from UniProt P10121) T307(112)W | 5.00 | – |
